The target in assay [1] is T1, human CD19 expressed on transfected DT40 chicken B-lymphoma cells (DT40hCD19+) (human, UniProt P15391 20-556).
T1 construct: Human CD19 cDNA under a chicken actin promoter (pApuro) in DT40 cells; also called human CD19 co-receptor
T1 sequence: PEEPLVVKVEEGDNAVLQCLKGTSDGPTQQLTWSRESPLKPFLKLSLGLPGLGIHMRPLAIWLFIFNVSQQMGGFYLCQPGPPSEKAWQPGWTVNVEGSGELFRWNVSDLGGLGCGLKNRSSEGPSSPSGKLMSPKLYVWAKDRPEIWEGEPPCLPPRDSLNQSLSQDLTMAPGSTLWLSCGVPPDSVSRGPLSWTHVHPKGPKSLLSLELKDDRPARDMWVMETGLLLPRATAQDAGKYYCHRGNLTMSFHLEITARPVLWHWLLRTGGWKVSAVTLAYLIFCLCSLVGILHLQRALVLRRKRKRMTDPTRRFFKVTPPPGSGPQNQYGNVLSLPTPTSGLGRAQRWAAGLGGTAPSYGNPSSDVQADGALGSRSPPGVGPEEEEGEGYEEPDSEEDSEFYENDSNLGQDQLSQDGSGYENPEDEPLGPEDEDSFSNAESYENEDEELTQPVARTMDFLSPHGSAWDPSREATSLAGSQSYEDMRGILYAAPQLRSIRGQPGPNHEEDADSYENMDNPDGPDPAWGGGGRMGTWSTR
Nature of the assay: flow cytometry, biotin-labeled CD19-L plus Avidin-FITC. From the text: (§1) Binding of biotin-labeled soluble CD19-L protein to the surface of CD19 co-receptor positive cells was examined using immunofluorescence staining combined with flow cytometry and deconvolution microscopy.
For orientation: Flow cytometry measures light scatter and fluorescence of single cells or particles in a stream.

The target of assay [2] is T2, CD19 co-receptor on CD19+ human B-lineage ALL cells (primary leukemic cells; NALM-6 cell line) (human, UniProt P15391 20-556).
T2 construct: Endogenous CD19 on leukemia cells
T2 sequence: T1 sequence
In words: deconvolution microscopy, biotin-labeled CD19-L plus Avidin-FITC. As for the experimental part: Deconvolution microscopy was performed using the Deltavision deconvolution system from Applied Precision which consists of a Nikon TE200 inverted microscope outfitted for epifluorescence and fitted with an Applied Precision nanomover stage for precise control of the stage. Image collection was through a Photometrics CH350/L liquid cooled CCD camera. The system was controlled by SoftWoRx imaging software run on a Silicon Graphics O2 workstation.
as §1

B1: biotin-labeled soluble recombinant human CD19-L protein (ligand)
chain: MYMSMTEPSQDYVPASQSYPGPSLESEDFNIPPITPPSLQDHSLVHLNEVESGYHSLCHPMNHNGLLPFHPQNMDLPEITVSNMLGQDGTLLSNSISVMPDIRNPEGTQYSSHPQMAAMRPRGQPAQIRQQPGMMPHGQLTTINQSQLSAQLGLNMGGSNVPHNSPSPPGSKSATPSPSSSVHEDEGDDTSKINGGEKRPASDMGKKPKTPKKKKKKDPNEPQKPVSAYALFFRDTQAAIKGQNPNATFGEVSKIVASMWDGLGEEQKQVYKKKTEAAKKEYLKQLAAYRASLVSKSYSEPVDVKTSQPPQLINSKPSVFHGPSQAHSALYLSSHYHQQPGMNPHLTAMHPSLPRNIAPKPNNQMQVTVSIANMAVSPPPPLQISPPLHQHLNMQQHQPLTMQQPLGNQLPMQVQSALHSPTMQQGFTLQPDYQTIINPTSTAAQVVTQAMEYVRSGCRNPPPQPVDWNNDYCSSGGMQRDKALYLT
modifications: biotin-labeled (sites not given) ; Biotin-labelled; sites and chemistry not stated.
notes: Same recombinant protein as m1, labelled with biotin and detected with Avidin-FITC; also called biotin-labeled CD19-L; biotin-labeled soluble CD19-L protein; not shown: N-terminal pFastBacHT leader (6xHis tag, spacer region, rTEV cleavage site)
Consider B1, for which the binding result in assay [1] and in assay [2] was “binds” in each case.
